Laboratory results: patent publication US20200317768A1 (published 2020)

T1: cynomolgus monkey FcγRIIa3 extracellular domain, His-tagged (cynomolgus monkey)
T1 construct: also called cyno FcgRIIa3; cynoFcγRIIa3; not shown: His-tag added to the C-terminus
T1 chain: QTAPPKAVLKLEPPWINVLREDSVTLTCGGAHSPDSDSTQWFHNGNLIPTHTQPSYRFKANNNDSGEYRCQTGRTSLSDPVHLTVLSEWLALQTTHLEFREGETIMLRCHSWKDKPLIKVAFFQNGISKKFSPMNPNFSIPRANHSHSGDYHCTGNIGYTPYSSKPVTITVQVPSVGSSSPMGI

T2: cynomolgus monkey FcγRIIb extracellular domain, His-tagged (cynomolgus monkey)
T2 construct: also called cyno FcgRIIb; cynoFcγRIIb; not shown: His-tag added to the C-terminus
T2 chain: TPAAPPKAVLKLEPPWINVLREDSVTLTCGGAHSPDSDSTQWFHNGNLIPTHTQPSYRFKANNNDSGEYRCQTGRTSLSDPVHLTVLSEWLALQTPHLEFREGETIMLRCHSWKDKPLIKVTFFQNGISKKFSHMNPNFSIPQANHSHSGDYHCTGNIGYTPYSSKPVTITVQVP

T3: human FcγRIIaH extracellular domain, His-tagged (human, UniProt P12318 34-217)
T3 construct: also called human FcgRIIaH; FcγRIIa (type H); not shown: His-tag added to the C-terminus
T3 sequence: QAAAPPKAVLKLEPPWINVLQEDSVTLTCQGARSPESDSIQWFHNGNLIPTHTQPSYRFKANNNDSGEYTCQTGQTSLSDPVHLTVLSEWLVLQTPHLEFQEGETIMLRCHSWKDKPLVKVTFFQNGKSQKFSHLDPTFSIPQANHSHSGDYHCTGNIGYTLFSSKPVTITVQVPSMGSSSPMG

T4: human FcγRIIaR extracellular domain, His-tagged (human, UniProt P12318 34-217)
T4 construct: also called human FcgRIIaR; FcγRIIa (type R); not shown: His-tag added to the C-terminus
T4 chain: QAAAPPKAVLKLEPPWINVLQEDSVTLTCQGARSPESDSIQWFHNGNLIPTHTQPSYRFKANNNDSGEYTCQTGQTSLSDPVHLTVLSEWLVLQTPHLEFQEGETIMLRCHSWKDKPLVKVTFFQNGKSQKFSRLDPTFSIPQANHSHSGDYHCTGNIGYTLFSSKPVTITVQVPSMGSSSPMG

T5: human FcγRIIb extracellular domain, His-tagged (human, UniProt P31994 43-217)
T5 construct: also called human FcgRIIb; not shown: His-tag added to the C-terminus
T5 sequence: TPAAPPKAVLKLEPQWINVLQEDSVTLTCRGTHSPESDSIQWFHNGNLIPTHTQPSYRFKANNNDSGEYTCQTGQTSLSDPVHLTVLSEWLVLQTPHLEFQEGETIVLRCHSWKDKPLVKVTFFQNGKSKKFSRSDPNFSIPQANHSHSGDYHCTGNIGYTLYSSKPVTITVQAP


Experiments:
Assay in all cases: SPR; KD of SG1 divided by KD of the variant;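 also: relative to parent M103205H795-SG1 carrying the SG1 human heavy chain constant region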
[1] = target: T1, cynomolgus monkey FcγRIIa3 …
Protocol: (§1) Regarding such interactions, KD values were calculated using the following 1:1 binding model described in BIACORE® T100 Software Handbook BR1006-48 Edition AE.
(§2) The behavior of interacting molecules according to the 1:1 binding model on BIACORE® can be described by Equation 1: Req=C·R max/(KD+C)+RI, wherein, Req is a plot of steady-state binding levels to analyte concentration. C is concentration, RI is bulk refractive index contribution in the sample, and Rmax is analyte binding capacity of the surface. When this equation is rearranged, KD can be expressed as Equation 2: KD=C·Rmax/(Req−RI)−C. KD can be calculated by substituting the values of Rmax, RI, and C into Equation 1 or Equation 2. From the current measurement conditions, RI=0, C=2 μmol/L can be used.
(§3) The resultant variants were expressed using M103202L889-SK1 as light chain and their affinity to human and cynoFcγRs were evaluated (Table 21).

[2] = target: T2, cynomolgus monkey FcγRIIb extracellular …
Protocol: as §1, §2, §3

[3] = target: T3, human FcγRIIaH extracellular domain, …
Protocol: as §1, §2, §3

[4] = target: T4, human FcγRIIaR extracellular domain, …
Protocol: as §1, §2, §3

[5] = target: T5, human FcγRIIb extracellular domain, …
Protocol: as §1, §2, §3

[6] = target: T6, human FcγRIIIaV extracellular domain, His-tagged (human, UniProt P08637 17-208)
T6 construct: also called human FcgRIIIaV; not shown: His-tag added to the C-terminus
Protocol: as §1, §2, §3

T6 sequence (P08637 17-208 F176V): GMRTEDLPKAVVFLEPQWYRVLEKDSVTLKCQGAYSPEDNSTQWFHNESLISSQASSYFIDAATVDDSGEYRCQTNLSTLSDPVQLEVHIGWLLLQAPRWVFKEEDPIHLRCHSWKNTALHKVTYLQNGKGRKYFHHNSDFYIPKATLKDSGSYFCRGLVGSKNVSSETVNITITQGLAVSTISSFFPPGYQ

Binder | KD fold (SG1 = 1) [1] [fold] | KD fold (SG1 = 1) [2] [fold] | KD fold (SG1 = 1) [3] [fold] | KD fold (SG1 = 1) [4] [fold] | KD fold (SG1 = 1) [5] [fold] | KD fold (SG1 = 1) [6] [fold]
M103205H795-MY261/M103202L889-SK1 (antibody, human IgG1, kappa, copies: 2 + 2) heavy: QVTLKESGPVLVKPTETLTLTCTVSGIDLSHDDISWVRQAPGKGLEWVGIISYAGSTYYASWAKGRLTISKDTSKNQVVLTMTNMDPVDTATYYCARGVPAYSHGGDLWGQGTLVTVSSASTKGPSVFPLAPSSKSTSGGTAALGCLVKDYFPEPVTVSWNSGALTSGVHTFPAVLQSSGLYSLSSVVTVPSSSLGTQTYICNVNHKPSNTKVDKKVEPKSCDKTHTCPPCPAPELLHGPSVFLFPPKPKDTLMISRTPEVTCVVVDVSDEDPEVKFNWYVDGVEVHNAKTKPREEQYNSTYRVVSVLTVLHQDWLNGKEYKCKVSNKALPKPIEKTISKAKGQPREPQVYTLPPSREEMTKNQVSLTCLVKGFYPSDIAVEWESNGQPENNYKTTPPVLDSDGSFFLYSKLTVDKSRWQQGNVFSCSVMHEALHNHYTQKSLSLSP light: DIVMTQSPATLSLSPGERATLSCTSSQSVYHANWLSWFQQKPGQPPKLLIYWASTLAYGVPSRFSGSGSGTDFTLTISSLQPEDAATYYCAGGYGGGRYAFGQGTKVEIKRTVAAPSVFIFPPSDEQLKSGTASVVCLLNNFYPREAKVQWKVDNALQSGNSQESVTEQDSKDSTYSLSSTLTLSKADYEKHKVYACEVTHQGLSSPVTKSFNRGEC | 3.1 | 1.2 | 2.9 | 1 | 0.9 | 0.07
M103205H795-MY262/M103202L889-SK1 (antibody, human IgG1, kappa, copies: 2 + 2) heavy: QVTLKESGPVLVKPTETLTLTCTVSGIDLSHDDISWVRQAPGKGLEWVGIISYAGSTYYASWAKGRLTISKDTSKNQVVLTMTNMDPVDTATYYCARGVPAYSHGGDLWGQGTLVTVSSASTKGPSVFPLAPSSKSTSGGTAALGCLVKDYFPEPVTVSWNSGALTSGVHTFPAVLQSSGLYSLSSVVTVPSSSLGTQTYICNVNHKPSNTKVDKKVEPKSCDKTHTCPPCPAPELLVGPSVFLFPPKPKDTLMISRTPEVTCVVVDVSDEDPEVKFNWYVDGVEVHNAKTKPREEQYNSTYRVVSVLTVLHQDWLNGKEYKCKVSNKALPKPIEKTISKAKGQPREPQVYTLPPSREEMTKNQVSLTCLVKGFYPSDIAVEWESNGQPENNYKTTPPVLDSDGSFFLYSKLTVDKSRWQQGNVFSCSVMHEALHNHYTQKSLSLSP light: DIVMTQSPATLSLSPGERATLSCTSSQSVYHANWLSWFQQKPGQPPKLLIYWASTLAYGVPSRFSGSGSGTDFTLTISSLQPEDAATYYCAGGYGGGRYAFGQGTKVEIKRTVAAPSVFIFPPSDEQLKSGTASVVCLLNNFYPREAKVQWKVDNALQSGNSQESVTEQDSKDSTYSLSSTLTLSKADYEKHKVYACEVTHQGLSSPVTKSFNRGEC | 2.1 | 3.2 | 4.9 | 1.5 | 0.8 | 0.16
M103205H795-MY263/M103202L889-SK1 (antibody, human IgG1, kappa, copies: 2 + 2) heavy: QVTLKESGPVLVKPTETLTLTCTVSGIDLSHDDISWVRQAPGKGLEWVGIISYAGSTYYASWAKGRLTISKDTSKNQVVLTMTNMDPVDTATYYCARGVPAYSHGGDLWGQGTLVTVSSASTKGPSVFPLAPSSKSTSGGTAALGCLVKDYFPEPVTVSWNSGALTSGVHTFPAVLQSSGLYSLSSVVTVPSSSLGTQTYICNVNHKPSNTKVDKKVEPKSCDKTHTCPPCPAPELLQGPSVFLFPPKPKDTLMISRTPEVTCVVVDVSDEDPEVKFNWYVDGVEVHNAKTKPREEQYNSTYRVVSVLTVLHQDWLNGKEYKCKVSNKALPKPIEKTISKAKGQPREPQVYTLPPSREEMTKNQVSLTCLVKGFYPSDIAVEWESNGQPENNYKTTPPVLDSDGSFFLYSKLTVDKSRWQQGNVFSCSVMHEALHNHYTQKSLSLSP light: DIVMTQSPATLSLSPGERATLSCTSSQSVYHANWLSWFQQKPGQPPKLLIYWASTLAYGVPSRFSGSGSGTDFTLTISSLQPEDAATYYCAGGYGGGRYAFGQGTKVEIKRTVAAPSVFIFPPSDEQLKSGTASVVCLLNNFYPREAKVQWKVDNALQSGNSQESVTEQDSKDSTYSLSSTLTLSKADYEKHKVYACEVTHQGLSSPVTKSFNRGEC | 2.3 | 1.8 | 2.2 | 1.5 | 1.3 | 0.35
